Source: patent publication US20190248888A1, “METHODS OF LOWERING BLOOD GLUCOSE LEVELS” (Regeneron Pharmaceuticals, Inc., priority 2016, published 2019)

Tested on: isolated pancreatic islets from mice
Assay: RNAseq gene expression in isolated pancreatic islets of GCGR antibody treated mice (Table 5)
Type: in vivo, mouse
Settings: 10 mg/kg, 21 days
Procedure: Mouse islets were isolated by density gradient separation after perfusing pancreas with Liberase TL (Roche, Indianapolis) through the common bile duct. Following a 13 min digestion at 37° C., the pancreas solution was washed and filtered through a 400-μm wire mesh strainer and islets were separated by Histopaque gradient centrifugation (Sigma-Aldrich). Isolated islets were cultured overnight in RPMI-1640 medium supplemented with 10% (v/v) FBS, 10 mM HEPES, 50 μM β-mercaptoethanol, 1.0 mM sodium-pyruvate, 100 U/mL penicillin and 100 μg/mL streptomycin at 37° C. with a 5% CO2 in air atmosphere.
Total RNA was purified from all samples using MagMAX™-96 for Microarrays Total RNA Isolation Kit (Ambion by Life Technologies) according to manufacturer's specifications. Genomic DNA was removed using MagMAX™Turbo™DNase Buffer and TURBO DNase from the MagMAX kit listed above (Ambion by Life Technologies). mRNA was purified from total RNA using Dynabeads® mRNA Purification Kit (Invitrogen). Strand-specific RNA-seq libraries were prepared using ScriptSeq™ mRNA-Seq Library Preparation Kit (Epicentre). Twelve-cycle PCR was performed to amplify libraries. Sequencing was performed on Illumina HiSeq®2000 (Illumina) by multiplexed single-read run with 33 cycles.
Raw sequence data (BCL files) were converted to FASTQ format via Illumina Casava 1.8.2. Reads were decoded based on their barcodes and read quality was evaluated with FastQC (http://www.bioinformatics.babraham.ac.uk/projects/fastqc/). Reads were mapped to the mouse transcriptome (NCBI GRCh37) using CLC Genomics Workbench Version 7.0 (CLCbio) or TopHat2 (Version 2.0.10) allowing two mismatches. Reads mapped to the exons of a gene were summed at the gene level. To identify differentially expressed genes, the statistical significance (p-value) of the differential expressions was assessed with DESeq package (version 1.6 or 2.0). […]

[1] = α-GCGR vs Control, isolated islets

B1: α-GCGR: potent monoclonal GCGR blocking antibody, HCVR/LCVR SEQ ID NOs: 86/88 (antibody, V domains shown)
VH: EVQLVESGGGLVQPGGSLRLSCAASGFTFSNYLMNWVRQAPGKGLEWLANIQEDGIEKYYVDSVKGRFTISRDNAKNSLYLQMNSLRAEDTAVYYCAREPSHYDILTGYDYYYGMDVWGQGTTVTVS
VL: DIQMTQSPSSLSASVGDRVTITCRASQGIRNDLGWYQQKPGKAPKRLIYAASSLQSGVPSRFSGSGSGTEFILTVSSLQPEDFATYYCLQYNSNPFTFGPGTKVDIK
Slc38a5 gene expression in isolated pancreatic islets (mice, vs control antibody): most upregulated gene | 1700086L19Rik Fold change [1]: 1.89 | 1810011O10Rik Fold change [1]: −1.64 | 1810041L15Rik Fold change [1]: 1.67 | 4930539E08Rik Fold change [1]: 1.96 | 9030617O03Rik Fold change [1]: 1.72 | AW551984 Fold change [1]: 1.69 | Acta1 Fold change [1]: −1.79 | Agpat4 Fold change [1]: 1.73 | Agt Fold change [1]: 1.78 | Ang Fold change [1]: 1.62 | Ano1 Fold change [1]: −1.78 | Anxa3 Fold change [1]: −1.53 | Anxa13 Fold change [1]: −1.60 | Apoa2 Fold change [1]: 1.68 | Apod Fold change [1]: 1.53 | Apol7a Fold change [1]: −1.51 | Arg1 Fold change [1]: 1.53 | Arx Fold change [1]: 1.59 | Asb11 Fold change [1]: −1.51 | Avpr1b Fold change [1]: 2.54 | Basp1 Fold change [1]: 1.65 | Blnk Fold change [1]: 1.55 | Bok Fold change [1]: −1.85 | Car9 Fold change [1]: −1.55 | Cdc42ep1 Fold change [1]: −1.54 | Clec2d Fold change [1]: 1.82 | Clic6 Fold change [1]: −1.69 | Clu Fold change [1]: −1.80 | Cnih2 Fold change [1]: 1.55 | Cobl Fold change [1]: 1.58 | Ctse Fold change [1]: −1.50 | Dbpht2 Fold change [1]: 1.87 | Dmbt1 Fold change [1]: −1.61 | Dpp6 Fold change [1]: 1.79 | Drc1 Fold change [1]: 1.96 | Eda2r Fold change [1]: 1.59 | Eef1a2 Fold change [1]: 2.18 | Ehf Fold change [1]: 1.61 | Etv1 Fold change [1]: 1.62 | F5 Fold change [1]: 1.51 | Ffar4 Fold change [1]: 1.78 | Fgd3 Fold change [1]: −1.67 | Fgl2 Fold change [1]: 1.65 | Gamt Fold change [1]: −1.50 | Gbp8 Fold change [1]: 1.84 | Gbp9 Fold change [1]: 1.74 | Gc Fold change [1]: 1.83 | Gcg Fold change [1]: 3.55 | Gcnt4 Fold change [1]: 1.58 | Gfra1 Fold change [1]: 1.53 | Gfra3 Fold change [1]: 2.71 | Gm609 Fold change [1]: 2.04 | Gm20554 Fold change [1]: 1.67 | Gng2 Fold change [1]: 1.63 | Gpr119 Fold change [1]: 1.54 | Gpx3 Fold change [1]: 2.86 | Hspb1 Fold change [1]: −1.54 | Ifih1 Fold change [1]: 2.33 | Igsf23 Fold change [1]: −1.65 | Irx1 Fold change [1]: 1.83 | Irx2 Fold change [1]: 2.00 | Itgb4 Fold change [1]: −1.69 | Jchain Fold change [1]: 1.57 | Kcna2 Fold change [1]: −1.68 | Kcnab3 Fold change [1]: −1.73 | Kcnf1 Fold change [1]: −1.56 | Kcnk3 Fold change [1]: 2.23 | Klb Fold change [1]: 1.77 | Klhl13 Fold change [1]: 1.91 | Krt19 Fold change [1]: −1.61 | Krt20 Fold change [1]: −1.63 | Krt23 Fold change [1]: −1.96 | Lamb3 Fold change [1]: −1.71 | Mafb Fold change [1]: 1.86 | Mamld1 Fold change [1]: 1.75 | Mapk13 Fold change [1]: −1.50 | Matn2 Fold change [1]: −1.55 | Ndst4 Fold change [1]: 2.71 | Necab2 Fold change [1]: −1.50 | Nefm Fold change [1]: 1.53 | Npr1 Fold change [1]: −1.65 | Nptxr Fold change [1]: −1.57 | Nsg2 Fold change [1]: 1.56 | Ntn1 Fold change [1]: −1.61 | Nudt11 Fold change [1]: 2.00 | Nyap1 Fold change [1]: 1.77 | Ocrl Fold change [1]: 1.57 | Oit1 Fold change [1]: 1.71 | Olfm3 Fold change [1]: 1.96 | Oxtr Fold change [1]: 1.53 | Pdk4 Fold change [1]: 2.83 | Peg10 Fold change [1]: 2.06 | Pla2g2d Fold change [1]: 1.50 | Ptf1a Fold change [1]: −1.95 | Ptprd Fold change [1]: 1.62 | Ptprg Fold change [1]: 1.52 | Rasd1 Fold change [1]: −1.54 | Rbms3 Fold change [1]: 1.51 | Rbp4 Fold change [1]: 1.64 | Rcn1 Fold change [1]: 1.54 | Rragb Fold change [1]: 1.67 | Sema3e Fold change [1]: 1.81 | Serpinb6b Fold change [1]: −1.68 | Serpine2 Fold change [1]: 2.80 | Serping1 Fold change [1]: 1.71 | Sftpd Fold change [1]: 2.07 | Sgce Fold change [1]: 1.84 | Sh2d4a Fold change [1]: −1.52 | Sh3bgr Fold change [1]: 1.54 | Slc38a3 Fold change [1]: −1.54 | Slc38a5 Fold change [1]: 5.54 | Smarca1 Fold change [1]: 1.88 | Spns2 Fold change [1]: −1.76 | St8sia1 Fold change [1]: −1.67 | Syt16 Fold change [1]: 1.63 | Tead2 Fold change [1]: −1.60 | Tesc Fold change [1]: 1.54 | Tmsb15b1 Fold change [1]: 1.60 | Tspan1 Fold change [1]: −2.50 | Ttr Fold change [1]: 4.27 | Vnn1 Fold change [1]: −1.50 | Vwde Fold change [1]: 2.23 | Wfdc16 Fold change [1]: 1.51 | Wnk3 Fold change [1]: 2.33
